According to US20150344570A1 (published 2015):

T1: FcγRIIa R (human, UniProt P12318 34-217)
T1 construct: extracellular domain; also called FcgRIIa R type; 2aR; not shown: His tag at the C terminus
T1 sequence (looked up): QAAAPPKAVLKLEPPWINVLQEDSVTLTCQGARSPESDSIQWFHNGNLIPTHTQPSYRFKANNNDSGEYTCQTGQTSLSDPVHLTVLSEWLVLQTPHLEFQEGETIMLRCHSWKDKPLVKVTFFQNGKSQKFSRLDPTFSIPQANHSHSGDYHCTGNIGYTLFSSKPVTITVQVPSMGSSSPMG

T2: FcγRIIb (human, UniProt P31994 43-217)
T2 construct: extracellular domain; also called FcgRIIb; 2b; not shown: His tag at the C terminus
T2 sequence (looked up): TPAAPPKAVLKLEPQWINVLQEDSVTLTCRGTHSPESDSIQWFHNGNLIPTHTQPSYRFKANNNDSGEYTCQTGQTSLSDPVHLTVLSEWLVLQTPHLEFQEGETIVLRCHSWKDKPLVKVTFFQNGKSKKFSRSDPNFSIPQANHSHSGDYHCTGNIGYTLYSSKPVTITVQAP

B1: GpH7-A5/GpH7-B3 variant A327_12R/GpL16-k0 (antibody, human IgG1, kappa)
heavy 1: not shown
heavy 2: not shown
light: DIVMTQSPLSLPVTPGEPASISCQASESLVHSNRNTYLHWYLQKPGQSPQLLIYKVSNRFSGVPDRFSGSGSGTDFTLKISRVEAEDVGVYYCSQNTHVPPTFGQGTKVEIERTVAAPSVFIFPPSDEQLKSGTASVVCLLNNFYPREAKVQWKVDNALQSGNSQESVTEQDSKDSTYSLSSTLTLSKADYEKHKVYACEVTHQGLSSPVTKSFNRGEC
notes: Heterodimerized anti-glypican-3 IgG1; mutation in the GpH7-B3 chain only; also called He Ab
B2: GpH7-A5/GpH7-B3 variant S267_08L/GpL16-k0 (antibody, human IgG1, kappa)
heavy 1: not shown
heavy 2: not shown
light: B1 light
notes: as for B1
B3: GpH7-A5/GpH7-B3 variant L328_12R/GpL16-k0 (antibody, human IgG1, kappa)
heavy 1: not shown
heavy 2: not shown
light: B1 light
notes: as for B1
B4: GpH7-A5/GpH7-B3 variant A327_12R/GpL16-k0 (antibody, human IgG1, kappa)
heavy 1: not shown
heavy 2: not shown
light: B1 light
notes: as for B1
B5: GpH7-A5/GpH7-B3 variant H268_09D/GpL16-k0 (antibody, human IgG1, kappa)
heavy 1: not shown
heavy 2: not shown
light: B1 light
notes: as for B1
B6: GpH7-A5/GpH7-B3 variant L328_11K/GpL16-k0 (antibody, human IgG1, kappa)
heavy 1: not shown
heavy 2: not shown
light: B1 light
notes: as for B1
B7: GpH7-A5/GpH7-B3 variant D270_05P/GpL16-k0 (antibody, human IgG1, kappa)
heavy 1: not shown
heavy 2: not shown
light: B1 light
notes: as for B1
B8: GpH7-A5/GpH7-B3 variant A327_09D/GpL16-k0 (antibody, human IgG1, kappa)
heavy 1: not shown
heavy 2: not shown
light: B1 light
notes: as for B1
B9: GpH7-A5/GpH7-B3 variant A327_07I/GpL16-k0 (antibody, human IgG1, kappa)
heavy 1: not shown
heavy 2: not shown
light: B1 light
notes: as for B1
B10: GpH7-A5/GpH7-B3 variant G237_09D/GpL16-k0 (antibody, human IgG1, kappa)
heavy 1: not shown
heavy 2: not shown
light: B1 light
notes: as for B1
B11: GpH7-A5/GpH7-B3 variant A327_10E/GpL16-k0 (antibody, human IgG1, kappa)
heavy 1: not shown
heavy 2: not shown
light: B1 light
notes: as for B1
B12: GpH7-A5/GpH7-B3 variant H268_13S/GpL16-k0 (antibody, human IgG1, kappa)
heavy 1: not shown
heavy 2: not shown
light: B1 light
notes: as for B1
B13: GpH7-A5/GpH7-B3 variant G237_20W/GpL16-k0 (antibody, human IgG1, kappa)
heavy 1: not shown
heavy 2: not shown
light: B1 light
notes: as for B1
B14: GpH7-A5/GpH7-B3 variant H268_02A/GpL16-k0 (antibody, human IgG1, kappa)
heavy 1: not shown
heavy 2: not shown
light: B1 light
notes: as for B1
B15: GpH7-A5/GpH7-B3 variant G236_09D/GpL16-k0 (antibody, human IgG1, kappa)
heavy 1: not shown
heavy 2: not shown
light: B1 light
notes: as for B1
B16: GpH7-A5/GpH7-B3 variant Y300_05P/GpL16-k0 (antibody, human IgG1, kappa)
heavy 1: not shown
heavy 2: not shown
light: B1 light
notes: Heterodimerized IgG1 antibody; alteration in the GpH7-B3 chain only; also called He Ab
B17: GpH7-A5/GpH7-B3 variant A327_18N/GpL16-k0 (antibody, human IgG1, kappa)
heavy 1: not shown
heavy 2: not shown
light: B1 light
notes: as for B1
B18: GpH7-A5/GpH7-B3 variant H268_10E/GpL16-k0 (antibody, human IgG1, kappa)
heavy 1: not shown
heavy 2: not shown
light: B1 light
notes: as for B1

Key:
[1] = biological target: T3, FcγRIIIa extracellular domain with C-terminal His tag (human, UniProt P08637 17-208); test: SPR (Biacore); He/Con_3a divided by He/Con_2b (FcγRIIIa against FcγRIIb)
T3 construct: extracellular domain; also called FcgRIIIa; 3a
Procedure: (§1) The heterodimerized antibodies He Abs in which one of the H chains was introduced with an alteration were assayed for their binding activities to each activating FcγR and inhibitory FcγR according to the method described in Example 4. […] The activating FcγRs in FIGS. 26, 27, 28, and 29 are FcγRIa, FcγRIIa (R), FcγRIIa (H), and FcγRIIIa, respectively.
(§2) Analysis of interaction between objective antibody and the FcγR was carried out using Biacore T100 (GE Healthcare). HBS-EP+ (GE Healthcare) was used as the running buffer, and the measurement temperature was set to 25° C. Chips produced by immobilizing the antigen peptide by the amine coupling method to a Series S Sencor Chip CM5 (GE Healthcare), or alternatively, chips produced by allowing preliminarily biotinylated antigen peptides to interact with and immobilize onto a Series S Sensor Chip SA (certified) (GE Healthcare) were used. Antibodies of interest were captured onto an antigen peptide-immobilized chip, and allowed to interact to each FcγR diluted with running buffer. To regenerate and repeatedly use the chip, the antibodies captured on the chip were washed off by reacting 10 mM glycine-HCl, pH 1.5.
T3 sequence (P08637 17-208): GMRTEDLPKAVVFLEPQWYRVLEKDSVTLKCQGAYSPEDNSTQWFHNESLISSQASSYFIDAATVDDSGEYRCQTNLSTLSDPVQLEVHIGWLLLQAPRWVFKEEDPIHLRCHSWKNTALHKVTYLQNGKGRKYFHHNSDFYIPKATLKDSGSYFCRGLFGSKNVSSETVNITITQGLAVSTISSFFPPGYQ

[2] = biological target: T3, FcγRIIIa extracellular domain with …; test: SPR (Biacore), antibody captured on antigen peptide chip, FcγR as analyte; GpH7-A5/GpH7-B3/GpL16-k0 = 100
Procedure: as §1, §2

FcγRIIa R [3] = biological target: T1, FcγRIIa R; test: SPR; He/Con_2aR divided by He/Con_2b (FcγRIIa R over FcγRIIb)
FcγRIIb = biological target: T2, FcγRIIb; test: SPR, relative to GpH7-A5/GpH7-B3/GpL16-k0
FcγRIIa R [4] = biological target: T1, FcγRIIa R; test: SPR, relative to GpH7-A5/GpH7-B3/GpL16-k0
[5] = biological target: T4, FcγRIIIa extracellular domain with C-terminal His tag (human, UniProt P08637 17-208); test: SPR (Biacore); He/Con_3a divided by He/Con_2b (FcγRIIb)
T4 construct: extracellular domain; also called FcgRIIIa; 3a; not shown: His tag at the C terminus
T4 sequence (P08637 17-208): as above

[6] = biological target: T4, FcγRIIIa extracellular domain with …; test: SPR (Biacore), FcγR as analyte over captured antibody; GpH7-A5/GpH7-B3/GpL16-k0 = 100
Procedure: as §1, §2

Row | Binder | He_3a/2b (IIIa/IIb) [1] [ratio] | He/Con_3a (relative binding activity) [2] | He_2aR/2b (FcγRIIa R [3]) [ratio] | He/Con_2b (FcγRIIb) [control = 100] | He/Con_2aR (FcγRIIa R [4]) [control = 100] | He_3a/2b (IIIa/IIb) [5] [ratio] | He/Con_3a [6]
1 | B1 | 2.15 | 19.3 % of control | – | – | – | – | –
2 | B2 | – | – | 0.66 | 109 | 72.1 | – | –
3 | B3 | 3.53 | 32.7 % of control | – | – | – | – | –
4 | B4 | – | – | 0.67 | 9 | 6 | – | –
5 | B5 | – | – | 0.62 | 239 | 149 | – | –
6 | B6 | 4.46 | 33.5 % of control | – | – | – | – | –
7 | B7 | – | – | 0.54 | 13.9 | 7.5 | – | –
8 | B8 | – | – | 0.72 | 172 | 124 | – | –
9 | B9 | – | – | 0.77 | 127 | 98 | – | –
10 | B10 | – | – | 0.7 | 223 | 156 | – | –
11 | B11 | – | – | 0.78 | 140 | 110 | – | –
12 | B12 | – | – | 0.8 | 160 | 127 | – | –
13 | B13 | – | – | 0.71 | 193 | 138 | – | –
14 | B14 | – | – | 0.8 | 167 | 133 | – | –
15 | B15 | – | – | 0.64 | 167 | 106 | – | –
16 | B16 | – | – | – | – | – | 0.38 | 2.8 % of control
17 | B17 | – | – | 0.79 | 113 | 88.9 | – | –
18 | B18 | – | – | 0.64 | 230 | 148 | – | –
